Test results reported in patent US20190201542A1 (AbbVie / Abbott, published 2019).

T1: human DLL3 (human, UniProt Q9NYJ7 27-492, limits assumed)
T1 construct: also called hDLL3; DLL3 protein
T1 sequence: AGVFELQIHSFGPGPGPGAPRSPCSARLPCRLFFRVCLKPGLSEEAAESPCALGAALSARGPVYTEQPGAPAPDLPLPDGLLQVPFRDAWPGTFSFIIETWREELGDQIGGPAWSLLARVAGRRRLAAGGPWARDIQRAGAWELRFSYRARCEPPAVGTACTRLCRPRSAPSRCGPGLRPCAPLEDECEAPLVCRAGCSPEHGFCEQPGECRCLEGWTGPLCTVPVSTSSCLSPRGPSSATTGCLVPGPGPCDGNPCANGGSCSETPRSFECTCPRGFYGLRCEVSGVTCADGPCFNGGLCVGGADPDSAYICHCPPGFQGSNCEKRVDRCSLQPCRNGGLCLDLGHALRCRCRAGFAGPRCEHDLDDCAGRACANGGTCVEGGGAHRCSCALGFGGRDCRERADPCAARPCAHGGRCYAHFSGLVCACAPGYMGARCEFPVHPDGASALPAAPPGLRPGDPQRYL

B1: SC16.118 (antibody, V domains shown)
VH: EVQLQQSGPDLVKPGASVKISCKASGYSFTGYYMHWVKQSHGKSLEWIGRVNPNNGGTSYNQKFKGKAILTADKSSSTAYMELRSLTSEDSAVYYCARGSYDYAEGWGQGTLVTVSA
VL: DIVLTQSPASLAVSLGQRATISCKASQSVDYDGDSYLTWYQQKPGQPPKLLIYAASNLESGIPARFSGSGSGTDFTLNIHPVEEEDAATYYCQQSNEDPYTFGGGTKLEIK
notes: murine mAb
B2: SC16.134 (antibody, V domains shown)
VH: EVQLQQSGPDLVKPGASVKISCKASGYSFTGYYMHWVKQSHGKRLEWIGRVNPNNGGTNYNQKFKGKAILTVDKSSSTAYMELRSLTSEDSAVYYCARGSYDNAEGWGQGTLVTVSA
VL: DIVLTQSPASLAVSLGQRATISCKASQSVDHAGDSYMNWYQQKPGQPPKLLIYAASNLESGIPARFSGSGSGTDFTLNIHPVEEEDAATYYCQQSNEDPYTFGGGTKLEIK
notes: murine mAb
B3: SC16.113 (antibody, V domains shown)
VH: DVKLVESGGGLVKPGGSLKLSCAASGFTFSSYTMSWVRQTPEKRLEWVATISSGGSYPYYPDSVKGRFTISRDNAKNTLYLQMSSLKSEDTAMYYCTRDVYDGYSYWGQGTTLTVSS
VL: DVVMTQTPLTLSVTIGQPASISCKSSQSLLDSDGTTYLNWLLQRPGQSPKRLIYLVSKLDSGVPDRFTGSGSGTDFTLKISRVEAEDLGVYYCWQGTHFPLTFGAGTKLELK
notes: murine mAb
B4: SC16.115 (antibody, V domains shown)
VH: DVKLVESGGGLVKPGGSLKLSCAASGFTFSSYTMSWVRQTPEKRLEWVATISSGGSYPYYPDSVKGRFTISRDNAKNTLYLQMSSLKSEDTAMYYCTRDVYDGYSYWGQGTTLTVSS
VL: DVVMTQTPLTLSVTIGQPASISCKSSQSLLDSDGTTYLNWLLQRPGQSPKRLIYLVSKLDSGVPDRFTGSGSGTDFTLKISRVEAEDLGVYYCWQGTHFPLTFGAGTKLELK
notes: murine mAb
B5: SC16.111 (antibody, V domains shown)
VH: EVQLQQSGPELEKPGASVKISCKASGYSFTGYNMNWVKQSNGKSLEWIGNIDPYYGGSSYKQKFEGKATLTVDKSSSTAYMQLKSLTSEDSAVYYCARGGSNFFDYWGQGTTLTVSS
VL: DIQMTQSPASLAASVGETVTITCRASENIYYSLAWYQQKQGKSPQLLIYNANSLEDGVPSRFSGSGSGTQYSMKINSMQPEDTATYFCKQTYDVPLTFGAGTKLELK
notes: murine mAb
B6: SC16.11 (antibody, V domains shown)
VH: QIQLVQSGPELKKPGETVKISCKASGYTFTDYSMHWVKQAPGKGLKWMGWINTETVEPTYADDFMGRFAFSLETSASTAFLQINNLENEDTATYFCARFGSYAMDYWGQGTSVTVSS
VL: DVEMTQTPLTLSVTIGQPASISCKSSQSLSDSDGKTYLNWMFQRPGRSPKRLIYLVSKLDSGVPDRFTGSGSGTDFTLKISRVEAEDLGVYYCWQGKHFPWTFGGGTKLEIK
notes: murine mAb
B7: SC16.117 (antibody, V domains shown)
VH: QVQLKESGPGLVAPSQSLSITCTVSGFSLTNYGVHWVRQPPGKGLEWLGVIWAGGITNYNSALMSRLSISEDNSKSQVFLKMNSLQTDDTAMYYCARNLGPYAMDYWGQGTSVTVSS
VL: DIQMNQSPSSLSASLGDTITITCHVSQNINVWLSWYQQKPGNIPKLLIQKASNLHTGVPSRFSGSGSGTGFTLTISSLQPEDIATYYCQQGQSYPFTFGSGTKLEIK
notes: murine mAb
B8: SC16.126 (antibody, V domains shown)
VH: QVQMKESGPGLVAPSQSLSITCTVSGSSLTNYGVHWVRQPPGKGLEWLGVIWAGGSTNYNSALMSRLSISKDNSKSQVFLKMNSLQTDDTAMYYCARDWEGWFAYWGQGTLVTVSA
VL: DIQMNQSPSSLSASLGDTITITCHASQNINVWLSWYQQKPGNIPKLLIYKASNLHTGVPSRFSGSGSGTGFTLTISSLQPEDIATYYCQQGQSYPFTFGSGTKLEIK
notes: murine mAb
B9: SC16.149 (antibody, V domains shown)
VH: QVQLKESGPGLVAPSQSLSITCAVSGFSLTSFGVHWVRQPPGKGLEWLGVIWAGGSTNYYSALMSRLSISIDNSKSQVFLKMNSLQTDDTAMYYCARDWEGWFAYWGQGTLVTVSA
VL: DIQMNQSPSSLSASLGDTITITCHASQNINVWLSWYQQKPGNIPKLLIYKASHLHTGVPSRLSGSGSGTGFTLTISSLQPEDIATYYCQQGQSYPFTFGSGTTLEIK
notes: murine mAb
B10: SC16.121 (antibody, V domains shown)
VH: EVQLVESGGGLVQPKGSLKLSCAASGFTFNTYAMNWVRQAPGKGLEWVARIRIKSNNYATYYADSVKDRFTISRDDSQNMLYLQMNNLKTEDTAVYYCVRQGYSYDWGPWFAYWGQGTLVTVSA
VL: QIVLTQSPAIMSASPGEKVTITCSASSSVSYMHWFQQKPGTSPKLWIYSTSNLASGVPARFSGSGSGTSYSLTISRMEAEDAATYYCQQRSSYPPTFGGGTKLEIK
notes: murine mAb
B11: SC16.10 (antibody, V domains shown)
VH: QVTLKESGPGILQSSQTLSLTCSFSGFSLSTSGMGVGWIRQPSGKGLEWLAHIWWDDVKRYNPVLKSRLTISKDTSSSQVFLKIASVDTADTATYYCARLVDDLYYFDYWGQGTTLTVSS
VL: QIVLTQSPAIMSASLGERVTMTCTASSSVSSSYLHWYQQKPGSSPKLWIYSTSNLASGVPTRFSGSGSGTSYSLTISSMEAEDAATYYCHQYHRSPFTFGSGTKLEIK
notes: murine mAb
B12: SC16.123 (antibody, V domains shown)
VH: QVALKESGPGILQPSQTLSLTCSFSGFSLSTSGMGVGWIRQPSGKGLEWLAHIWWDDVKRYNPALKSRLTISKDTSSSQVFLKIASVDTADTATYYCARMEDYGSSSYFDFWGHGTTLTVSS
VL: QIVLTQSPAIMSASLGERVTMTCTASSSVSSSYLHWYQQKPGSSPKLWIYSTSNLASGVPARFSGSGSGTSYSLTISSMETEDAATYYCHQYHRSPFTFGSGTKLEIK
notes: murine mAb
B13: SC16.139 (antibody, V domains shown)
VH: EVQLQQSGPELVKPGASVKMSCKASGYTFTNYVMHWVKQKPGQGLEWIGYINPYNDGTKYNEKFKGKATLTSDKSSTTAYMALSSLTSEDSAVYYCAVAYYSNWGFAYWGQGTLVTVSA
VL: DIVMTQSHKFMSTSVGDRVSITCKASQDVNTAVGWYQQKPGQSPKLLIYSASYRYTGVPDRFTGSGSGTDFTFTISSVQAEDLAVYYCQQHYSSPYTFGGGTKLEIK
notes: murine mAb
B14: SC16.122 (antibody, V domains shown)
VH: EVQLVESGGGLVKPGGSLKLSCAASGFTFSDYYMFWVRQTPEKRLEWVATISDGGSYTYFPDSVKGRFTISRDNAQNNLYLQMSSLKSEDTAMYYCARAGTLYAMDYWGQGTSVTVSS
VL: DIVMTQSQKFMSTSVGDRVSVTCKASQNVGTNVAWYQQKPGQSPKVLIYSASYRYSGVPDRFTGSGSGTDFTLTISNVQSEDLAEFFCQQYNSYPLTFGGGTKLEIK
notes: murine mAb
B15: SC16.114 (antibody, V domains shown)
VH: EVQLQQSGAELVKPGASVKLSCTASGFNIKDTYIHWVKQRPEQGLEWIGRIDPANGNTKYDPKFQGKATITPDTSSNTAYLQLSSLTSEDTAVYYCARSWRNYGSSFWYFDVWGAGTTVTVSS
VL: QIVLSQSPAILSASPGEKVTMTCRASSSVSYMHWYQQKPGSSPKPWIYATSNLASGVPARFSGSGSGTSYSLTISRVEAEDAATYYCQQWSSNPYTFGGGTKLEIK
notes: murine mAb
B16: SC16.109 (antibody, V domains shown)
VL: QIVLTQSPAIMSASPGEKVTMTCSASSSVSYMYWYQQKPGSSPRLLIYDTSNLASGVPVRFSGSGSGTSFSLTISRMEAEDTATYYCQEWSGNPLTFGDGTKLELK
V domain: QIQLVQSGPELKKPGETVKISCKASGYTFTNYGMNWVKQAPGKGLKWMGWINTYTGEPAYADDFKGRFAFSLETSASAAYLQINNLKNEDTATFFCANMRPTRGFAYWGQGTLGTVSA
notes: murine mAb
B17: SC16.124 (antibody, V domains shown)
VH: EVQLQQSGPELVKPGASVKMSCKASGYTFTSYVMHWVKQKPGQGLEWIGYINPYNDGTKYNEKFKGKATLTSDKSSSTAYMELSSLTSEDSAVYYCARGALYYGNYLGYFDVWGAGTTVTVSS
VL: DIQMTQSPASQSASLGESVTITCLASQTIGTWLAWYQQKPGKSPQLLISAATSLADGVPSRFSGSGSGTKFSFKISSLQAEDFVSYYCQQLYSTPWTFGGGTKLEIK
notes: murine mAb
B18: SC16.132 (antibody, V domains shown)
VH: QVQLKESGPGLVAPSQSLSITCTVSGFSLTDYGVSWIRQPPGKGLEWLGVVWGGGSTYYNSALKSRLSITKDNSKSQVFLKMNSLQTDDTAMYYCAKQRGQYGAYWGQGTLVTVSA
VL: DIQMTQSPASQSASLGESVTITCLASQTIGTWLAWYQQKPGKSPQLLIYAATSLADGVPSRFSGSGSGTKFSFKISSLQAEDFVSYYCQQLYSTPWTFGGGTKLEIK
notes: murine mAb
B19: SC16.116 (antibody, V domains shown)
VH: QVQLKQSGPGRVQPSQSLSITCTVSGFSLTSNGVHWVRQSPGKGLEWLGVLWSGGSTDYNAAFISRLSISKDNYKSQVFFKMNSLQANDTAIYYCARNNNRYGAMDYWGQGTSVTVSS
VL: DIVMTQSPSSLTVTAGEKVTMSCTSSQSLLTSGNQKNYLTWYQQKPGQPPKLLIYWASTRESGVPDRFTGSGSGTDFTLTISSLQAEDLAVYYCQNDYSLTFGAGTKLELK
notes: murine mAb
B20: SC16.110 (antibody, V domains shown)
VH: EVQLQQSGPGLVRTGASVKISCKASGYSFTGYYMHWVKQSHGKSLEWIGYISCYNGATTYNQNFKGKATFIVDTSSSTAYMQFNSLTSEDSAVYYCARSDGGHAMDYWGQGTSVTVSS
VL: NIVMTQTPKFLLVSAGDRVTITCKASQSVSNDVAWYQQKPGQSPKLLIYYASNRYTGVPDRFTGSGYGTDFTFTISTVQAEDLAVYFCQQDYSSPPTFGGGTKLEIK
notes: murine mAb

molecular target: T1, human DLL3; test: screen on immobilized hDLL3 or h293-hDLL3 cells
Method in brief: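 After 10 days in culture, supernatants of single-cell hybridomas from human DLL3-immunized mice were tested on cells and by solid-phase ELISA. A flow-cytometry signal above the control level counted as binding. The ELISA used DLL3-His coated at 0.5 μg/ml, HRP anti-mouse IgG and TMB, with reading at OD 450.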

Binding result, binds:
B1
B2
B3
B4
B5
B6
B7
B8
B9
B10
B11
B12
B13
B14
B15
B16
B17
B18
B19
B20
